Results as given in patent US20210380703A1.

B1: 365_G04 (antibody, V domains shown)
VH: EVQLLESGGGLVQPGGSLRLSCAASGFTFDSYSMNWVRQAPGKGLEWVAGINYNGGYTGYADSVKGRFTISRDNSKNTLYLQMNSLRAEDTAVYYCARGANWHDTHLDYWGQGTLVTVSS
VL: DIQMTQSPSSLSASVGDRVTITCRASQSIVSYVNWYQQKPGKAPKLVIYAATSLASGVPSRFSGSGSGTDFTLTISSLQPEDFATYYCQQSYDTPLTFGGGTKVEIK
B2: 365_G05 (antibody, V domains shown)
VH: EVQLLESGGGLVQPGGSLRLSCAASGFTFSSYGMNWVRQAPGKGLEWVSGINYNGGYKGYADSVKGRFTISRDNSKNTLYLQMNSLRAEDTAVYYCARGANWHDTALDYWGQGTLVTVSS
VL: DIQMTQSPSSLSASVGDRVTITCRASQSILSYLNWYQQKPGKAPKLVIYAATSLASGVPSRFSGSGSGTDFTLTISSLQPEDFATYYCQQSYENPLTFGGGTKVEIK
B3: 365_G09 (antibody, V domains shown)
VH: EVQLLESGGGLVQPGGSLRLSCAASGFTFSSYSMNWVRQAPGKGLEWVSGINYNGGYKSYADSVKGRFTISRDNSKNTLYLQMNSLRAEDTAVYYCARGANWHDTHLDYWGQGTLVTVSS
VL: DIQMTQSPSSLSASVGDRVTITCRASQSIITYLNWYQQKPGKAPKLVIYAATSRASGVPSRFSGSGSGTDFTLTISSLQPEDFATYYCQQSYNSPLTFGGGTKVEIK
B4: 366_D01 (antibody, V domains shown)
VH: EVQLLESGGGLVQPGGSLRLSCAASGFTFSSYGMHWVRQAPGKGLEWVSSINYNGGYTGYADSVKGRFTISRDNSKNTLYLQMNSLRAEDTAVYYCARAANWHDTHLDYWGQGTLVTVSS
VL: DIQMTQSPSSLSASVGDRVTITCRASQSILTYVNWYQQKPGKAPKLLIYAATSRASGVPSRFSGSGSGTDFTLTISSLQPEDFATYYCQQSYENPLTFGGGTKVEIK
B5: 365_H07 (antibody, V domains shown)
VH: EVQLLESGGGLVQPGGSLRLSCAASGFTFDSYSMNWVRQAPGKGLEWVSGINYNGGYTSYADSVKGRFTISRDNSKNTLYLQMNSLRAEDTAVYYCARGANWHDTHLDYWGQGTLVTVSS
VL: DIQMTQSPSSLSASVGDRVTITCRASQSISTYVNWYQQKPGKAPKLLIYAATSRHSGVPSRFSGSGSGTDFTLTISSLQPEDFATYYCQQSYENPLTFGGGTKVEIK
B6: 366_A08 (antibody, V domains shown)
VH: EVQLLESGGGLVQPGGSLRLSCAASGFTFDDYSMNWVRQAPGKGLEWVSGINYNSGYKGYADSVKGRFTISRDNSKNTLYLQMNSLRAEDTAVYYCARGANWHDTHLDYWGQGTLVTVSS
VL: DIQMTQSPSSLSASVGDRVTITCRASQSIVSYVNWYQQKPGKAPKLVIYAATSRASGVPSRFSGSGSGTDFTLTISSLQPEDFATYYCQQSYNSPLTFGGGTKVEIK
B7: 366_B05 (antibody, V domains shown)
VH: EVQLLESGGGLVQPGGSLRLSCAASGFTFSDYSMNWVRQAPGKGLEWVSGINYNSGYKSYADSVKGRFTISRDNSKNTLYLQMNSLRAEDTAVYYCARGANWHDTALDYWGQGTLVTVSS
VL: DIQMTQSPSSLSASVGDRVTITCRASQSISSYLNWYQQKPGKAPKLVIYAVTSRASGVPSRFSGSGSGTDFTLTISSLQPEDFATYYCQQSYELPLTFGGGTKVEIK
B8: 366_B07 (antibody, V domains shown)
VH: EVQLLESGGGLVQPGGSLRLSCAASGFTFSDYGMNWVRQAPGKGLEWVSGINYNGGYTSYADSVKGRFTISRDNSKNTLYLQMNSLRAEDTAVYYCARGANWHDTHLDYWGQGTLVTVSS
VL: DIQMTQSPSSLSASVGDRVTITCRASQSIVSYLNWYQQKPGKAPKLVIYATTSRASGVPSRFSGSGSGTDFTLTISSLQPEDFATYYCQQSYNSPLTFGGGTKVEIK
B9: 366_E08 (antibody, V domains shown)
VH: EVQLLESGGGLVQPGGSLRLSCAASGFTFSDYSMNWVRQAPGKGLEWVSNINYNGGYTSYADSVKGRFTISRDNSKNTLYLQMNSLRAEDTAVYYCARGANWHDTHLDYWGQGTLVTVSS
VL: DIQMTQSPSSLSASVGDRVTITCRASQSIVTYLNWYQQKPGKAPKLLIYAATSRHSGVPSRFSGSGSGTDFTLTISSLQPEDFATYYCQQSYSNPLTFGGGTKVEIK
B10: 366_F02 (antibody, V domains shown)
VH: EVQLLESGGGLVQPGGSLRLSCAASGFTFSSYGMNWVRQAPGKGLEWVSGINYNSGYTGYADSVKGRFTISRDNSKNTLYLQMNSLRAEDTAVYYCARGANWHDTHLDYWGQGTLVTVSS
VL: DIQMTQSPSSLSASVGDRVTITCRASQSILTYLNWYQQKPGKAPKLVIYAATSRHSGVPSRFSGSGSGTDFTLTISSLQPEDFATYYCQQSYDNPLTFGGGTKVEIK
B11: 366_D03 (antibody, V domains shown)
VH: EVQLLESGGGLVQPGGSLRLSCAASGFTFDSYGMHWVRQAPGKGLEWVSSINYNGGYTGYADSVKGRFTISRDNSKNTLYLQMNSLRAEDTAVYYCARAANWHDTHLDYWGQGTLVTVSS
VL: DIQMTQSPSSLSASVGDRVTITCRASQSILSYVNWYQQKPGKAPKLLIYAATSRASGVPSRFSGSGSGTDFTLTISSLQPEDFATYYCQQSYDLPLTFGGGTKVEIK
B12: 367_A03 (antibody, V domains shown)
VH: EVQLLESGGGLVQPGGSLRLSCAASGFTFDSYGMNWVRQAPGKGLEWVAGINYNGGYTSYADSVKGRFTISRDNSKNTLYLQMNSLRAEDTAVYYCARGANWHDTALDYWGQGTLVTVSS
VL: DIQMTQSPSSLSASVGDRVTITCRASQSILTYVNWYQQKPGKAPKLLIYATTSRHSGVPSRFSGSGSGTDFTLTISSLQPEDFATYYCQQSYDSPLTFGGGTKVEIK
B13: 367_A06 (antibody, V domains shown)
VH: EVQLLESGGGLVQPGGSLRLSCAASGFTFDSYGMNWVRQAPGKGLEWVASINYNGGYKGYADSVKGRFTISRDNSKNTLYLQMNSLRAEDTAVYYCARGANWHDTHLDYWGQGTLVTVSS
VL: DIQMTQSPSSLSASVGDRVTITCRASQSILSYVNWYQQKPGKAPKLLIYAATSRHSGVPSRFSGSGSGTDFTLTISSLQPEDFATYYCQQSYDTPLTFGGGTKVEIK
B14: 367_A08 (antibody, V domains shown)
VH: EVQLLESGGGLVQPGGSLRLSCAASGFTFDSYGMNWVRQAPGKGLEWVAGINYNGGYTSYADSVKGRFTISRDNSKNTLYLQMNSLRAEDTAVYYCARGANWHDTHLDYWGQGTLVTVSS
VL: DIQMTQSPSSLSASVGDRVTITCRASQSILTYLNWYQQKPGKAPKLLIYAVTSRASGVPSRFSGSGSGTDFTLTISSLQPEDFATYYCQQSYDSPLTFGGGTKVEIK
B15: 367_A10 (antibody, V domains shown)
VH: EVQLLESGGGLVQPGGSLRLSCAASGFTFSSYGMNWVRQAPGKGLEWVAGINYNSGYTSYADSVKGRFTISRDNSKNTLYLQMNSLRAEDTAVYYCARGANWHDTHLDYWGQGTLVTVSS
VL: DIQMTQSPSSLSASVGDRVTITCRASQSIITYVNWYQQKPGKAPKLLIYAATSLASGVPSRFSGSGSGTDFTLTISSLQPEDFATYYCQQSYDLPLTFGGGTKVEIK
B16: 367_A12 (antibody, V domains shown)
VH: EVQLLESGGGLVQPGGSLRLSCAASGFTFSSYGMNWVRQAPGKGLEWVSGINYNSGYTSYADSVKGRFTISRDNSKNTLYLQMNSLRAEDTAVYYCARGANWHDTHLDYWGQGTLVTVSS
VL: DIQMTQSPSSLSASVGDRVTITCRASQSILSYLNWYQQKPGKAPKLLIYAATSLHSGVPSRFSGSGSGTDFTLTISSLQPEDFATYYCQQSYNNPLTFGGGTKVEIK

Target: human Fc (human)
Experiment: ELISA, negative control

Row | Binder | optical density
1 | B1 | 0.295 OD
2 | B2 | 0.319 OD
3 | B3 | 0.288 OD
4 | B4 | 0.374 OD
5 | B5 | 0.33 OD
6 | B6 | 0.243 OD
7 | B7 | 0.24 OD
8 | B8 | 0.215 OD
9 | B9 | 0.272 OD
10 | B10 | 0.371 OD
11 | B11 | 0.318 OD
12 | B12 | 0.347 OD
13 | B13 | 0.378 OD
14 | B14 | 0.252 OD
15 | B15 | 0.315 OD
16 | B16 | 0.39 OD
